Paper PMC10878513, “SRPK2 Mediates HBV Core Protein Phosphorylation and Capsid Assembly via Docking Interaction” (PLOS Pathogens, 2024)
Numbering of substitutions follows the chain as printed. In names and notes the source's numbering stands.

Key:
[1] = biological target: the molecule itself; test: SEC; without ATP; proteins in disassembly buffer (1.5 M GuHCl), GuHCl removed by dialysis against reassembly buffer; analytical Superdex 200 10/300 GL; peak fractions by SDS-PAGE
[2] = biological target: T1, His-tagged SRPK2WT (full-length SRPK2) (UniProt P78362 1-688); test: MST; 200 nM N-terminally His-tagged SRPK1/2 labelled with RED-tris-NTA as target; GST-CpY132A as ligand in 2-fold serial dilution from 20 μM to 0.61 nM; room temperature; Monolith NT.115, MST power 40%; details: both partners purified
T1 construct: serine-arginine protein kinase 2 (SRPK2), full length, wild type; Cloned in pET-15b; Labelled on the His tag with RED-tris-NTA for MST; also called His-SRPK2WT; wild-type SRPK2; source: E. coli BL21(DE3)pLysS, purified (Ni-NTA, SEC); not shown: His tag, N-terminal, kept
T1 sequence (P78362 whole entry): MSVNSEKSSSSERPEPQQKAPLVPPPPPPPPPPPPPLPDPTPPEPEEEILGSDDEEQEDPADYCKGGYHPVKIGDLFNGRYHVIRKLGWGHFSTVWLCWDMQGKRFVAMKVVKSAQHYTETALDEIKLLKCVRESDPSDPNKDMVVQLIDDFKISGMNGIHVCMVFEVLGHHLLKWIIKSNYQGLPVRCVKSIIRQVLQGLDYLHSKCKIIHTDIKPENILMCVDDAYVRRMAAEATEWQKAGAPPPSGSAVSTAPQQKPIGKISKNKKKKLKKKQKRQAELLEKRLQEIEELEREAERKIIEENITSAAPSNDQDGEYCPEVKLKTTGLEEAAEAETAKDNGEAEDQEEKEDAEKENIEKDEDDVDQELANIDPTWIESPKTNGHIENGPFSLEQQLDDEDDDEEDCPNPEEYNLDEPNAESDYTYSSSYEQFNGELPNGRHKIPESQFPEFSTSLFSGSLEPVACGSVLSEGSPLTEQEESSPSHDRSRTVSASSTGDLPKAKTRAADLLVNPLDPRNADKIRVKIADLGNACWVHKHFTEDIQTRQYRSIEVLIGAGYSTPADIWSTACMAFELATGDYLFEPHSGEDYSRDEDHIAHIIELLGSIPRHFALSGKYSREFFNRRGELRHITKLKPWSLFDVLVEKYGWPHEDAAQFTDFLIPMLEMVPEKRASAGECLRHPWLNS

His-tagged SRPK1WT = biological target: T2, His-tagged SRPK1WT (UniProt Q96SB4 1-655); test: as above; details: both partners purified
T2 construct: serine-arginine protein kinase 1 (SRPK1), wild type; Labelled on the His tag with RED-tris-NTA for MST; also called wild-type SRPK1; source: recombinant, purified; not shown: His tag, N-terminal, kept
T2 sequence (Q96SB4 whole entry): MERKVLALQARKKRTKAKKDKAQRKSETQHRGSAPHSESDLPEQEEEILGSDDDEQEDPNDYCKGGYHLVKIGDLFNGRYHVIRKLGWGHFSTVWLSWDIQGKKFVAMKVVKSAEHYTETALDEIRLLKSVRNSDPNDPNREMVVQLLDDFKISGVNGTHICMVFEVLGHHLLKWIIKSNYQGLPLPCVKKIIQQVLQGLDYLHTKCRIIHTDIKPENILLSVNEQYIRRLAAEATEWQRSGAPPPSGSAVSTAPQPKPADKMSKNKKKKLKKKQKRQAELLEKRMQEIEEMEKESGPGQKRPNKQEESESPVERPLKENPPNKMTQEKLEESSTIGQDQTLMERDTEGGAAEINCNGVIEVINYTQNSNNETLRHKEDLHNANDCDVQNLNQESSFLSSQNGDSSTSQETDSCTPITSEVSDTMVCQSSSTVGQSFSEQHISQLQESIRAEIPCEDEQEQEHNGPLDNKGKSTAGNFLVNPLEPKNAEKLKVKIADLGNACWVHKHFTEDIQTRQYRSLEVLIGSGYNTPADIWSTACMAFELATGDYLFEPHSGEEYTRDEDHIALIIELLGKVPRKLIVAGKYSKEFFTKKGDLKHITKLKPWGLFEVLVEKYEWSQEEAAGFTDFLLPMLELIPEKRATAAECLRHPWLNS

[3] = biological target: the molecule itself; test: SEC; SRPK2ΔS1/CpWT complex supplemented with 5 mM MgCl2 and 0.1 mM ATP; analytical Superdex 200 10/300 GL; void-volume peak also imaged by negative-stain EM

B1: His-tagged CpWT (wild-type hepatitis B core protein) (natural protein)
chain: MDIDPYKEFGATVELLSFLPSDFFPSVRDLLDTASALYREALESPEHCSPHHTALRQAILCWGELMTLATWVGNNLEDPASRDLVVNYVNTNVGLKIRQLLWFHISCLTFGRETVLEYLVSFGVWIRTPPAYRPPNAPILSTLPETTVVRRRDRGRSPRRRTPSPRRRRSPSPRRRRSQSRESQC
notes: Hepatitis B virus core protein (Cp), subtype adw2, full length, wild type; Kept as a dimer in GuHCl; assembles into capsids (about 35 nm, typical of T = 4) when GuHCl or urea is dialysed away; The His tag is seen as extra density at the 3-fold vertices of the capsid maps; Cloned in pET-15b; also called His-CpWT; CpWT dimer; not shown: His tag, N-terminal, kept
Question: Does B1 bind [1]?
Answer: Result: binds

B2: GST-tagged CpY132A (hepatitis B core protein with the mutation Y132A) (natural protein)
chain: B1 chain with Y132A
notes: Hepatitis B virus core protein (Cp), subtype adw2, full length (assembly domain 1-149, ARD 150-185); Cloned in pGEX-4T-2; also called GST–CpY132A; GST-CpY132A; source: E. coli BL21(DE3)pLysS, purified (glutathione resin); not shown: GST, N-terminal, kept
Question: B2 was tested. Which Kd [2] did it give?
Answer: Its Kd is 101 nM.

Question: What about the Kd (His-tagged SRPK1WT) of the same binder?
Answer: Its Kd is 83.6 nM.

B3: CpWT phosphorylated by SRPK2ΔS1 (after addition of ATP/Mg2+) (natural protein)
chain: B1 chain
modifications: phosphorylated by SRPK2ΔS1 with ATP/Mg2+; sites and extent not stated for this sample
notes: Hepatitis B virus core protein (Cp), subtype adw2, full length, wild type; also called phosphorylated Cp; capsid formed after the addition of ATP/Mg2+; source: E. coli BL21(DE3)pLysS, purified; SRPK2ΔS1/CpWT complex supplemented with 5 mM MgCl2 and 0.1 mM ATP
Question: Does B3 bind [3]?
Answer: Result: binds
